In US20110318353A1 (Janssen / Centocor, published 2011):
Changes are numbered by the printed parent chain. Read-outs that look alike come from different tables or passages of the source. Values belong to the molecule of their own block, whether it stands above or below them.

Assays:
[1] = target: T1, human IL-25 (human, UniProt Q9H293 33-177)
T1 sequence: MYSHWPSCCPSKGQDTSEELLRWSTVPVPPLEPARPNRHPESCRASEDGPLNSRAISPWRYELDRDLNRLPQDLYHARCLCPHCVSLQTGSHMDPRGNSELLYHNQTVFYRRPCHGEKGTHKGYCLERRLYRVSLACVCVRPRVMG

[2] = target: T1, human IL-25; assay: Biacore, 7200 sec dissociation
Source text: (§1) The Fabs were converted to mAbs as follows. A combinatorial library of 5 different light chains and 5 different heavy chains (including the huDDG91 light and heavy chains) was designed. The light and heavy chains used in the library differed from one another in the light chain CDR1 and CDR3 amino acid sequences and the heavy chain CDR 3 sequence. Using these light and heavy chains, a total of 25 mAbs (IgG1) were constructed, expressed in HEK293 cells at small scale and purified. Each of the mAbs was tested for IL-25 binding affinity, cellular inhibition, and receptor inhibition as follows: [0149] IL-25 binding affinity was determined using standard IL-25 ELISA and Biacore binding assays. […] Cellular inhibition was assessed using a standard TK-10 human renal carcinoma cell-based assay (IL-25 responsive; IL-25 and IL-8 readout; capable of discerning difference between soluble IL-25R and parental mAb) and a CD4+ T cell-based assay. […] Receptor inhibition was assessed using a modified bead-based electrochemiluminescence immunoassay (ECLIA). Candidates causing a greater than 3-fold decrease in IC₅₀ of IL-25 binding to receptor relative to parental huDDG91 antibody at a 10 nM mAb concentration were selected.

[3] = target: T1, human IL-25; assay: Receptor inhibition (column sub-head 'Panel A/ B'): bead-based ECLIA, inhibition of IL-25 binding to the IL-25 receptor
Source text: as §1

[4] = target: T1, human IL-25; assay: cell-based or functional assay
[5] = target: T2, cynomolgus monkey IL-25 (cynomolgus monkey, UniProt G7P9V9 33-176); assay: species cross-reactivity criterion; method not stated
T2 construct: also called cynoIL-25; cyno IL-25
T2 sequence: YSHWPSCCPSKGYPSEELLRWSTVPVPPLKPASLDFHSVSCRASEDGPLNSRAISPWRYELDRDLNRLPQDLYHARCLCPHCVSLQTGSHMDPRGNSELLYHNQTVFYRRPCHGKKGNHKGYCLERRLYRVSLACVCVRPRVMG

[6] = target: T1, human IL-25; assay: receptor inhibition: IL-25 binding to receptor, bead-based ECLIA
[7] = target: T1, human IL-25; assay: Biacore, 7200 sec dissociation; first R71V G1 row
Source text: as §1

[8] = target: T1, human IL-25; assay: Biacore, 7200 sec dissociation; second R71V G1 row, printed in italics = number from a different data set
[9] = target: T1, human IL-25; assay: Receptor inhibition (column sub-head 'Panel A/ B'): bead-based ECLIA, inhibition of IL-25 binding to the IL-25 receptor; lower end of the range
Source text: as §1

[10] = target: T1, human IL-25; assay: Receptor inhibition (column sub-head 'Panel A/ B'): bead-based ECLIA, inhibition of IL-25 binding to the IL-25 receptor; upper end of the range
Source text: as §1

[11] = target: T1, human IL-25; assay: Biacore, 7200 sec dissociation; printed in italics = number from a different data set

B2: huDDG91 antibody (antibody, V domains shown)
VH: EVQLVESGAEVKKPGASVKVSCKASGYSFSGYTMNWVRQAPGQRLEWMGLINPYNGGTSYNQNFKGRVTLTVDTSASTAYLELNSLRSEDTGVYYCAREDYDGYLYFAMDYWGQGTLVTVS
VL: DIQMTQSPSSLSASVGDRVTITCSASQGISNYLNWYQQKPGKVPKLLIYYTSSLHSGVPSRFSGSGSGTDFTLTISSLQPEDVATYYCQQYSKLPYTFGQGTKLEIK
notes: Humanized (CDR-grafted) version of murine 2C3; also called RH2.5_R71V; M9
Kd [7]: 0.194 nM
Kd [8]: 0.136 nM
IC50 [9]: ≥ 0.0452 nM
IC50 [10]: ≤ 0.0643 nM

B3: I25M28 (antibody, V domains shown)
VH: B2 VH with Y101F, G103S, Y104W, L105T
VL: B2 VL with S92L, K93A, L94F
notes: One of the 9 candidate IgG1 mAbs of the combinatorial library based on huDDG91
Cellular inhibition, fold change [4]: 16 fold change
Kd [2]: 0.019 nM
IC50 [3]: 0.014 nM

B6: I25M11 (antibody, V domains shown)
VH: B2 VH with Y101F, G103S, Y104W, L105T, Y106F
VL: B2 VL with S30A, N31S, Y32F, K93S, L94F
notes: as for B3
Cellular inhibition, fold change [4]: 5 fold change
Kd [2]: 0.057 nM
IC50 [3]: 0.014 nM

B7: I25M30 (antibody, V domains shown)
VH: B2 VH with Y101F, G103S, Y104W, L105T
VL: B2 VL with S30H, N31W, Y32N, Y91F, S92N, K93S, L94F
notes: as for B3
Cellular inhibition, fold change [4]: 3 fold change
Kd [2]: 0.044 nM
IC50 [3]: 0.02 nM

B8: I25M31 (antibody, V domains shown)
VH: B2 VH with Y101F, G103S, Y104W, L105T
VL: B2 VL
notes: as for B3
Cellular inhibition, fold change [4]: 12 fold change
Kd [2]: 0.04 nM
IC50 [3]: 0.018 nM

More lines, in order of falling IC50 [3], values ahead:

Cellular inhibition, fold change [1]: 1 fold change
Kd [2]: 0.017 nM
IC50 [3]: 0.063 nM
Molecule: IL-17BR (receptor)

Cellular inhibition, fold change [4]: 5 fold change
Kd [2]: 0.036 nM
IC50 [3]: 0.014 nM
B5: I25M10 (antibody, V domains shown)
VH: B2 VH with Y101F, G103S, Y104W, L105T, Y106F
VL: B2 VL with S92L, K93A, L94F
notes: as for B3

Cellular inhibition, fold change [4]: 20 fold change
Kd [11]: 0.045 nM
IC50 [3]: 0.013 nM
B4: I25M20 (antibody, V domains shown)
VH: B2 VH with G103S, Y104W, L105T, Y106F
VL: B2 VL with S92L, K93A, L94F
notes: as for B3

Cellular inhibition, fold change [4]: 7 fold change
Kd [2]: 0.064 nM
IC50 [3]: 0.013 nM
B10: I25M34 (antibody, V domains shown)
VH: B2 VH with Y101F, G103S, Y104W, L105T
VL: B2 VL with S30N, N31E, S92I, K93N, L94F
notes: as for B3

Cellular inhibition, fold change [4]: 4 fold change
Kd [2]: 0.053 nM
affinity relative to that for human IL-25 [5]: ≤ 5 fold
fold decrease in IC50 compared to huDDG91 [6]: > 3 fold
IC50 [3]: 0.012 nM
B1: M6 antibody (antibody, human IgG1, kappa, V domains shown)
VH: EVQLVESGAEVKKPGASVKVSCKASGYSFSGYTMNWVRQAPGQRLEWMGLINPYNGGTSYNQNFKGRVTLTVDTSASTAYLELNSLRSEDTGVYYCAREDYDGYLYFAMDYWGQGTLVTVSS
VL: DIQMTQSPSSLSASVGDRVTITCSASQGISNYLNWYQQKPGKVPKLLIYYTSSLHSGVPSRFSGSGSGTDFTLTISSLQPEDVATYYCQQYLAFPYTFGQGTKLEIKR
notes: Humanized IgG1 mAb with kappa light chain, a variant of huDDG91 with three substitutions in light chain CDR3

Cellular inhibition, fold change [4]: 4 fold change
Kd [2]: 0.087 nM
IC50 [3]: 0.011 nM
B9: I25M32 (antibody, V domains shown)
VH: B2 VH with G103S, Y104W, L105T, Y106F
VL: B2 VL with S30N, N31E, S92I, K93N, L94F
notes: as for B3
